According to patent publication US20120276102A1 (Pfizer, published 2012):
One block for each binder: values may come before it.

Columns and labels:
[1] = target: T1, human complement component C1q (human, UniProt P02745 23-245; P02746 28-253; P02747 29-245); test: C1q ELISA: antibody coated on the plate, human serum 1:50, chicken anti-human C1q and HRP anti-chicken IgY
T1 construct: Native C1q in diluted human serum
Method: In order to determine whether cell-surface binding by anti-IL-21R antibodies is likely to lead to complement-dependent cytotoxicity (CDC), the antibodies were tested for their ability to bind to the complement component C1q in an ELISA. […] Diluted antibodies (100 μl) were coated onto a COSTAR® high-binding ELISA plate (Corning Life Sciences, Lowell, Mass.) overnight at 4° C. Plates were washed 3× with PBS/Tween-20 and blocked with 200 μl of blocking buffer (0.1 M NaPO₄, 0.1 M NaCl, 0.1% gelatin, 0.01% Tween) for 1 hr at RT. Human serum previously determined to contain C1q (Quidel, San Diego, Calif.) was diluted 1:50 in PBS. After 1 hr of blocking, plates were washed and 100 μl of diluted serum was added to each well and incubated for 2 hr at RT on a shaker. Following three washes, 100 μl A of 0.1 μg/ml chicken polyclonal anti-human C1q antibody (AbCam, Cambridge, Mass.) was added to each well and incubated for 1 hr at RT. Plates were again washed and incubated with 100 μA of a rabbit polyclonal antibody to chicken Ig-Y—HRP diluted 1:4000 (AbCam) for 1 hr at RT. Plates were washed and developed with TMB for 5 min, followed by 50 μA of 1 M H₂SO₄ to stop the reaction, and then read at 450 nm.

human IL-2Rβ = target: T2, human IL-2Rβ (human, UniProt P14784 27-239); test: SPR, Ab captured
T2 sequence (looked up): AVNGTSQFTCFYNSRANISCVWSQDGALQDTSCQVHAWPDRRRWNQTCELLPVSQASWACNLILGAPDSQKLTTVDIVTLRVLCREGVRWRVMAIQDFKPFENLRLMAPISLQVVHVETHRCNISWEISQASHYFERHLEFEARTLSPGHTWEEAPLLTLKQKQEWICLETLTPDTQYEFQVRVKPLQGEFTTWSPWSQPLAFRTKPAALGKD
In short: (§1)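 SPR at 25 °C in HBS/EP: antibodies from conditioned media captured (500-700 RU) on amine-coupled anti-human IgG or anti-murine Ig on CM5 chip. 50 nM analyte injected, association 120 s and dissociation 180 s; glycine pH 1.5 regeneration, double-referenced sensorgrams.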

human soluble IL-4R = target: T3, human soluble IL-4R (human, UniProt P24394 26-232, limits assumed); test: SPR, Ab captured
T3 construct: also called human sIL-4R
In short: as §1

human IL-13-His/FLAG = target: T4, human IL-13-His/FLAG (human, UniProt P35225 35-146, limits assumed); test: SPR, Ab captured
T4 construct: Unrelated His/FLAG-tagged control; also called human IL-13-H/F
T4 sequence (P35225 35-146 limits assumed): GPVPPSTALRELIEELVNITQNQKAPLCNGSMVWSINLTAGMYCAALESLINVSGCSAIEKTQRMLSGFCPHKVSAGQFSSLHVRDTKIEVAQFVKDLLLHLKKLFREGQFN
In short: as §1

[2] = target: rat IL-21R expressed on cells (rat); test: cell-based or functional assay
[3] = target: human IL-21R expressed on cells (human, UniProt Q9HBE5 20-538); test: cell-based or functional assay
Sequence of human IL-21R expressed on cells (Q9HBE5 20-538 limits assumed): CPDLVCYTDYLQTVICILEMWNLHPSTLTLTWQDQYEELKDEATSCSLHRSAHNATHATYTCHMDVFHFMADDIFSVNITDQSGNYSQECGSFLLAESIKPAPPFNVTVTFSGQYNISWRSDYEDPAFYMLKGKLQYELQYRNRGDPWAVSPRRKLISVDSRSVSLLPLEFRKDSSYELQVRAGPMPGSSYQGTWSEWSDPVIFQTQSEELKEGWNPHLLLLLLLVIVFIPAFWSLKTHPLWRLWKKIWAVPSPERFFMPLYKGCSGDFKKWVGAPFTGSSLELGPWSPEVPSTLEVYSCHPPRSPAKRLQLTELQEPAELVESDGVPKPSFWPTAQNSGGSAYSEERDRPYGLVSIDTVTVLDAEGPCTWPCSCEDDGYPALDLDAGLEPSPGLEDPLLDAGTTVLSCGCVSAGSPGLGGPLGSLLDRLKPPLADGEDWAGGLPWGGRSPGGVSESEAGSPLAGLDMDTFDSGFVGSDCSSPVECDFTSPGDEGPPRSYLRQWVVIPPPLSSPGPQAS

[4] = target: T5, rabbit IL-21R-Fc isoform 1 (rabbit); test: ELISA; competitor 10% conditioned medium containing rabbit IL-21
T5 construct: extracellular domain

[5] = target: T6, rabbit IL-21R-Fc isoform 2 (rabbit); test: as above
T6 construct: extracellular domain

[6] = target: T7, human IL-21R extracellular domain His-Flag fusion protein (human, UniProt Q9HBE5 20-232); test: SPR, Ab captured on anti-human IgG, replicate experiment; Table 7B, human IL-21R-His/FLAG
T7 construct: Biotinylated in the HTRF screen; also called hIL-21R-H/F; human IL-21R-H/F
T7 sequence (Q9HBE5 20-232): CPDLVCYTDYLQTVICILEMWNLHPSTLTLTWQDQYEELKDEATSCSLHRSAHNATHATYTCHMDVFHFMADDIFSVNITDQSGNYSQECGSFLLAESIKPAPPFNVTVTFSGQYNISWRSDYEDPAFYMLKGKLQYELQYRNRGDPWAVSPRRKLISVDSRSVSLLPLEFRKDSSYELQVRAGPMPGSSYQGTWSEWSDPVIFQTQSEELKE
Method: The kinetics of binding of anti-IL-21R antibodies to human and murine IL-21R-H/F was tested on a BIACORE™ surface plasmon resonance instrument. Anti-human IgG antibodies (Invitrogen Corporation) were immobilized onto a research-grade carboxy-methyl-dextran chip (CM5) using standard amine coupling. The surface was activated with EDC/NHS for 7 min at a flow of 20 μl/min. The first flow cell was used as a reference surface to correct for bulk refractive index, matrix effects, and nonspecific binding. The anti-human-Fc antibody was diluted to 20 μg/ml in 10 mM sodium acetate buffer (pH 5.0), and 2950-3405 resonance units (RU) were captured on each of the four flow cells. Remaining activated groups were blocked with 1.0 M ethanolamine-HCl (pH 8.5).
Anti-IL-21R antibodies were diluted to 0.1-0.2 μg/ml in HBS/EP buffer supplemented with 0.2% bovine serum albumin and loaded onto the BIACORE™ chip. Following a brief washing period, solutions of 0-100 nM human IL-21R-H/F or 10-500 nM murine IL-21R-H/F were injected over the chip at a flow rate of 50 μl/min. The association phase was run for 3 min for human and murine IL-21R kinetics, and the dissociation phase was monitored for 15 min for hIL-21R and for 5 min for mIL-21R, followed by two 10 μl injections and one 30 μl injection of glycine (pH 1.5), to regenerate a fully active capturing surface. […]

T1 sequence (P02745 23-245, chain 1 of 3): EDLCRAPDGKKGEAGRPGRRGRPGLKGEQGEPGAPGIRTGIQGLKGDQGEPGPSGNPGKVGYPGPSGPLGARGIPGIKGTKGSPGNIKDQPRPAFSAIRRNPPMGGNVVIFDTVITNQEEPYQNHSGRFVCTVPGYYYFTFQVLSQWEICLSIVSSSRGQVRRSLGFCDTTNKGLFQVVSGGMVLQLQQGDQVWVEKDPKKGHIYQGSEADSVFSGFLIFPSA
T1 sequence (P02746 28-253, chain 2 of 3): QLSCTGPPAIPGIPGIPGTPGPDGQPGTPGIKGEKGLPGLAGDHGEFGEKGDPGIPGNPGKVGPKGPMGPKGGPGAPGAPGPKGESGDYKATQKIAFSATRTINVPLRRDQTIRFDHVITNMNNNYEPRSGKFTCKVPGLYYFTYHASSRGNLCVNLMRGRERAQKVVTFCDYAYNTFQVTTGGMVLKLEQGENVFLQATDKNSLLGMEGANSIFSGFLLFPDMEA
T1 sequence (P02747 29-245, chain 3 of 3): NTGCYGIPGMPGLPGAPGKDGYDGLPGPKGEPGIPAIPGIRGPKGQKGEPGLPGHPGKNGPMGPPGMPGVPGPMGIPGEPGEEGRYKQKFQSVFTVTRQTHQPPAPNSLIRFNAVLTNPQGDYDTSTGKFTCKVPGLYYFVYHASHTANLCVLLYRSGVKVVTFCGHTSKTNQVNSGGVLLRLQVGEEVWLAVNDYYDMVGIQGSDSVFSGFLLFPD

binding result [1]: no binding
B1: AbP (antibody, human IgG1, V domains shown)
VH: QVQLQESGPGLVKPSETLSLTCAVSGYSISSGYYWGWIRQPPGKGLEWIGSISHTGNTYYNPPLKSRVTISVDTSKNQFSLKLSSVTAADTAVYYCARGGGISRPEYWGQGTLVTVSS
VL: SSELTQDPAVSVALGQTVRITCQGDSLRTYYASWYQQKPGQAPVLVIYGKHKRPSGIPDRFSGSSSGNTASLTITGAQAEDEADYYCVSRSAKGNPHVLFGGGTQLTVL
notes: CDR3 graft, residue limits derived as for m29; also called VHP/VL20; VHPTM/VL20

binding result [1]: no binding
B2: AbO (antibody, human IgG1, V domains shown)
VH: QVQLQESGPGLVKPSETLSLTCAVSGYSISSGYYWGWIRQPPGKGLEWIGSISHTGNTYYNPPLKSRVTISVDTSKNQFSLKLSSVTAADTAVYYCARGGGISRPEYWGQGTLVTVSS
VL: SSELTQDPAVSVALGQTVRITCQGDSLRTYYASWYQQKPGQAPVLVIYGKHKRPSGIPDRFSGSSSGNTASLTITGAQAEDEADYYCVTRSAKGNPHVLFGGGTQLTVL
notes: CDR3 graft, residue limits derived as for m29; also called VHP/VL16; VHPTM/VL16

binding result (human IL-2Rβ): no binding (tested: 50 nM)
binding result (human soluble IL-4R): no binding (tested: 50 nM)
binding result (human IL-13-His/FLAG): no binding (tested: 50 nM)
B3: parental 18A5 antibody (antibody, V domains shown)
VH: QVQLQESGPGLVKTSETLSLTCAVSGYSISSGYYWGWIRQPPGKGLEWIGSISHTGNTYYNPPLKSRVTISVDTSKNQFSLKLSSVTAADTAVYYCARGGGISRPEYWGKGTLVTVSS
VL: SSELTQDPPVSVALGQTVTLTCQGDSLRTYYASWYQQKSGQAPILLLYGKHKRPSGIPDRFSGSTSGDTASLTITGAQAEDEADYYCNSRDSSGNPHVLFGGGTQLTVL
notes: also called 18A5 IgG

Continued, binder first:

B4: AbU (antibody, human IgG1, V domains shown)
VH: QVQLQESGPGLVKPSETLSLTCAVSGYSISSGYYWGWIRQPPGKGLEWIGSISHTGNTYYNPPLKSRVTISVDTSKNQFSLKLSSVTAADTAVYYCARGGGISRPEYWGQGTLVTVSS
VL: SSELTQDPAVSVALGQTVRITCQGDSLRTYYASWYQQKPGQAPVLVIYGKHKRPSGIPDRFSGSSSGNTASLTITGAQAEDEADYYCTTRSNKGNPHVLFGGGTQLTVL
notes: CDR3 graft, residue limits derived as for m29; also called VHP/VL25; VHPTM/VL25
IC50, rat T cell proliferation, experiment 1 [2]: 173 nM
IC50, rat T cell proliferation, experiment 2 [2]: 105 nM
binding result [1]: no binding

B5: AbS (antibody, V domains shown)
VH: QVQLQESGPGLVKPSETLSLTCAVSGYSISSGYYWGWIRQPPGKGLEWIGSISHTGNTYYNPPLKSRVTISVDTSKNQFSLKLSSVTAADTAVYYCARGGGISRPEYWGQGTLVTVSS
VL: SSELTQDPAVSVALGQTVRITCQGDSLRTYYASWYQQKPGQAPVLVIYGKHKRPSGIPDRFSGSSSGNTASLTITGAQAEDEADYYCMSRSIWGNPHVLFGGGTQLTVL
notes: CDR3 graft, residue limits derived as for m29; also called VHP/VL6; VHPTM/VL6
IC50, rat T cell proliferation, experiment 1 [2]: 36 nM
IC50, rat T cell proliferation, experiment 2 [2]: 27.1 nM
IC50, IL-21-induced CD19 expression in human whole blood [3]: 7 ng/mL
IC50, IL-21-induced GZMB expression in human whole blood [3]: < 3 ng/mL
IC50, IL-21-induced IFNG expression in human whole blood [3]: 15 ng/mL
IC50, IL-21-induced IL2Rα expression in human whole blood [3]: 2 ng/mL
IC50, IL-21-induced IL6 expression in human whole blood [3]: 5 ng/mL
IC50, IL-21-induced PRF1 expression in human whole blood [3]: 7 ng/mL
fold reduction of binding in the presence of rabbit IL-21 [4]: ~10 fold
fold reduction of binding in the presence of rabbit IL-21 [5]: ~10 fold
binding result [1]: no binding

B6: AbQ (antibody, human IgG1, V domains shown)
VH: QVQLQESGPGLVKPSETLSLTCAVSGYSISSGYYWGWIRQPPGKGLEWIGSISHTGNTYYNPPLKSRVTISVDTSKNQFSLKLSSVTAADTAVYYCARFMGFGRPEYWGQGTLVTVSS
VL: SSELTQDPAVSVALGQTVRITCQGDSLRTYYASWYQQKPGQAPVLVIYGKHKRPSGIPDRFSGSSSGNTASLTITGAQAEDEADYYCVARSVVGNPHVLFGGGTQLTVL
notes: CDR3 graft, residue limits derived as for m29; also called VH3/VL2; VH3DM/VL2
kon [6]: 439000 M⁻¹ s⁻¹
